The experiment deals with HIV-1 Gag protein peptide on HLA-B*57:01 (human). In words: multimer staining.

B1: A16.2 (TCR)
alpha TRAV4 TRAJ20 CDR3: CLVGGEDYKLSF
beta TRBV4-3 TRBJ2-5 CDR3: CASSQARGGAETQYF
Regarding B1, the binding result is on record as “recognises”.

B2: A16.1 (TCR)
alpha TRAV4 TRAJ9 CDR3: CLVGEVRGGFKTIF
beta TRBV4-3 TRBJ2-5 CDR3: CASSQARGGAETQYF
Consider B2, for which the binding result is “recognises”.

The values are drawn from publication PMC7042382 (2020).
